# Like-named read-outs stand apart in the source and are kept apart here.
# Legend:
# [1] = rat, in vivo, inhaled or intranasal
# Experimental: As a system for test, BN/CrlCrlj rat (Charles River Laboratories International, Inc., 5-week old) was used.
# For administration of each test substance, the test system was fixed dorsally under general anesthesia, and by using a sonde for intratracheal administration (MicroSprayer® Aerosolizer Model IA-1B, manufactured by Penn-Century), intratracheal administration was performed with volume of 100 μL. As general anesthesia, inhalation of isoflurane (Forane (registered trade mark), Dainippon Pharmaceutical Co., Ltd., concentration of 3.0%, flow rate of 2.0 L/min) filled in a small animal anesthetizer (TK-4, manufactured by BioMachinery Co., Ltd.) was used.
# At Hour 4, 24, 48, 72 and 168 after administration of a test substance, the pulmonary tissue was collected by using scissors and forceps under pentobarbital anesthesia. Meanwhile, three samples were taken for each evaluation time point. […]
# Each parameter of drug kinetics was calculated from a change in average content in pulmonary tissue. If there was an animal showing the measurement value of less than lower limit of quantification (<10 ng/g), the average content in pulmonary tissue was calculated by having the value of 0 (zero) for it. The time t (hr) for calculating AUC0-t was the final time point at which the quantification can be made. […]
# [2] = tested on: rat model of muscle pain disorder caused by carrageenan; assay: Effect of diclofenac coupled sodium hyaluronates in rat model of muscle pain disorder caused by carrageenan, 14 days (Test Example B7); type: in vivo; details: for muscle pressure pain threshold value vs control group: 1% (w/v) i.m. 14 days before carrageenan, measured 3 h after carrageenan, FIG. 10; for duration of analgesic effect: 1% (w/v), intramuscular administration
# Experimental: The following were prepared as a test substance in which citric acid buffer is used as a solvent. As an inflammatory agent, 10 mg/mL carrageenan solution was used. […] A rat (Crj: SD line (SPF), male, 7-week old) was fixed dorsally under general anesthesia, and a broad region around the left gastrocnemius muscle was shaved using a shaver.
# [3] = tested on: rat model of muscle pain disorder caused by silver nitrate; assay: Effect of diclofenac coupled hyaluronic acids in rat model of muscle pain induced by silver nitrate (Test Example B5); type: in vivo; details: for duration of analgesic effect: 1% (w/v), intramuscular, observed for 3 days; for pain score vs control group / muscle pressure pain threshold value vs control group: i.m. 100 μL/site, 1% (w/v) in citric acid buffer, 24, 48, 72 h after administration; for pain score vs control group: FIG. 7; for muscle pressure pain threshold value vs control group: FIG. 8
# Experimental: As an inflammatory agent, 0.1 mol/L silver nitrate solution was filtered through a 0.22 μm filter and used. […] Accordingly, a rat model of muscle pain disorder caused by silver nitrate was prepared. […] At Hour 24 after the administration of 0.1 mol/L silver nitrate solution, the rats were divided into 3 groups, and each group was administered with either the test substance or citric acid buffer solution. […] Furthermore, ** and * represent, in the parametric Tukey test, **p<0.01 and *p<0.05 (vs Control), respectively. […] The length of move of the weight at which a pain-related behavior like avoidance is shown was read to one decimal place. This operation was repeated three times in total, and the median value was taken as the muscle pressure pain threshold value. […] Furthermore, *** represents, in the parametric Tukey test, ***p<0.001 (vs Control).
# [4] = Release test for conjugates obtained from Examples 26 to 28, citrate buffer pH 5.1 (Test Example A7); type: physicochemical
# Experimental: The amount of the dissociated diclofenac component which is present in a solution in an initial state (storage: Day 0) immediately after the dissolution was subjected to quantitative analysis based on ODS-HPLC. […] Meanwhile, the method for pre-treatment of HPLC sample is described below. Methanol (1 mL) was added to the stored solution (1 g). After dilution and addition of acetonitrile to 20 mL, the hyaluronic acid component was allowed to precipitate. The obtained supernatant was used as a HPLC sample. HPLC conditions are as follows. column: […] flow rate: 1 mL/min temperature: 35° C.
# [5] = tested on: rat model of muscle pain disorder caused by carrageenan
# Experimental: (§2) As an inflammatory agent, 10 mg/mL carrageenan solution was used. As general anesthesia, inhalation of isoflurane (concentration of 3.0%, flow rate of 2.0 L/min) filled in a small animal anesthetizer (TK-4, manufactured by BioMachinery Co., Ltd.) was used.
# (§3) A rat (Crj: SD line (SPF), male, 8-week old) was fixed dorsally under general anesthesia, and a broad region around the left gastrocnemius muscle was shaved using a shaver. The area for injection was sprayed with 70% alcohol for sterilization, and by using an injection tube applied with needle for subcutaneous insulin administration (MYJECTOR (registered trade mark), TERUMO CORPORATION), each test solution was injected (volume of 100 μL/site) for intramuscular administration into the left medial gastrocnemius muscle of a rat.
# (§4) 10 Days after administering the test substance, each group was administered with 10 mg/mL carrageenan solution. As for the administration method, like the test substance, under inhalation of isoflurane, the region around the gastrocnemius muscle was sprayed with 70% alcohol for sterilization, and by using an injection tube applied with 29 G needle for subcutaneous insulin administration, it was injected (volume of 100 μL/site) for intramuscular administration into the left gastrocnemius muscle of a rat. […]
# [6] = Release test for conjugates obtained from Examples 18 to 21 (Test Example A5); type: physicochemical; details: 0.1% in 20 mM sodium phosphate buffer pH 7.0, 36°C
# Description: The amount of the dissociated diclofenac component which is present in an initial state (storage: Day 0) immediately after the dissolution, and the amount of diclofenac ester which has been forced to dissociate by using a base were subjected to quantitative analysis based on ODS-HPLC. […] From the ratio between the obtained amount of the dissociated diclofenac component at each time point and the amount of dissociated diclofenac component resulting from forced dissociation, the dissociation ratio (%) was calculated. For a pre-treatment of a HPLC sample, OASIS HLB was used, and a fraction eluted by acetonitrile was analyzed. HPLC conditions are as follows. column: […] temperature: 35° C.
# [7] = Release test for conjugates obtained from Examples 22 to 25 (Test Example A6); type: physicochemical; details: 0.1% in 20 mM sodium phosphate buffer pH 7.0, 36°C
# Description: (§1) The amount of the dissociated diclofenac component which is present in an initial state (storage: Day 0) immediately after the dissolution, and the amount of diclofenac ester which has been forced to dissociate by using a base were subjected to quantitative analysis based on ODS-HPLC. […] From the ratio between the obtained amount of the dissociated diclofenac component at each time point and the amount of dissociated diclofenac component resulting from forced dissociation, the dissociation ratio (%) was calculated. For a pre-treatment of a HPLC sample, OASIS HLB was used, and a fraction eluted by acetonitrile was analyzed. HPLC conditions are as follows. column: […] flow rate: 1 mL/min temperature: 35° C.
# [8] = Release test for conjugates obtained from Examples 15 to 17 (Test Example A4); type: physicochemical; details: 0.1% in 20 mM sodium phosphate buffer pH 7.0, 36°C
# Description: as §1
# [9] = tested on: rat model of muscle pain disorder caused by carrageenan; assay: Effect of diclofenac coupled chondroitin sulfate in rat model of muscle pain disorder caused by carrageenan, 7 days (Test Example B8); type: in vivo
# Experimental: The followings were prepared as a test substance in which PBS is used as a solvent.
# as §2
# A rat (Crj: SD line (SPF), male, 9-week old) was fixed dorsally under general anesthesia, and a broad region around the left gastrocnemius muscle was shaved using a shaver. The area for injection was sprayed with 70% alcohol for sterilization, and by using an injection tube applied with needle for subcutaneous insulin administration (MYJECTOR (registered trade mark), TERUMO CORPORATION), the test solution was injected (volume of 100 μL/site) for intramuscular administration into the left gastrocnemius muscle of a rat.
# 7 Days after administering the test substance, each group was administered with 10 mg/mL carrageenan solution. As for the administration method, like the test substance, under inhalation of isoflurane, the region around the gastrocnemius muscle was sprayed with 70% alcohol for sterilization, and by using an injection tube applied with 29 G needle for subcutaneous insulin administration, it was injected (volume of 100 μL/site) for intramuscular administration into the left gastrocnemius muscle of a rat. […]
# [10] = tested on: rat model of muscle pain disorder caused by silver nitrate; assay: Effect of NSAID coupled chondroitin sulfates in rat model of muscle pain induced by silver nitrate (Test Example B3); type: in vivo; details: i.m. 100 μL/site, 1% DF-CS or 5% other conjugates in PBS, 24, 48, 72 h after administration
# Experimental: As an inflammatory agent, 0.1 mol/L silver nitrate solution was filtered through a 0.22 μm filter and used. […] Accordingly, a rat model of muscle pain disorder caused by silver nitrate was prepared. […] Furthermore, *** and * represent, in the parametric Tukey test, ***p<0.001 and *p<0.05 (vs Control), respectively. Score 0: Normal Score 1: Mild claudication Score 2: Severe claudication Score 3: Walking on three legs […] The length of move of the weight at which a pain-related behavior like avoidance is shown was read to one decimal place. This operation was repeated three times in total, and the median value was taken as the muscle pressure pain threshold. […] Furthermore, *** and * represent, in the parametric Tukey test, ***p<0.001 and *p<0.05 (vs Control), respectively.
# [11] = tested on: rat model of muscle pain disorder caused by carrageenan; assay: Effect of diclofenac coupled hyaluronic acid in rat model of muscle pain disorder caused by carrageenan, 10 days (Test Example B6); type: in vivo
# Experimental: The following were prepared as a test substance in which citric acid buffer is used as a solvent.
# as §2, §3, §4
# [12] = Release test for conjugates obtained from Examples 26 and 32 at 60, 40, 25°C (Test Example A9); type: physicochemical
# Experimental: The amount of the dissociated diclofenac component which is present in a solution in an initial state (storage: Day 0) immediately after the dissolution was subjected to quantitative analysis based on ODS-HPLC. Other aliquot was stored at 60° C., 40° C., or 25° C. immediately after the dissolution, the decomposition amount of diclofenac ester was similarly subjected to quantitative analysis after lapse of the each designated time. From the ratio between the obtained amount of the dissociated diclofenac component at each time point and the amount of dissociated diclofenac component resulting from forced dissociation, the dissociation ratio (%) was calculated. For a pre-treatment of a HPLC sample, OASIS HLB was used, and a fraction eluted by acetonitrile was analyzed. HPLC conditions are as follows. column: […] flow rate: 1 mL/min temperature: 35° C.
# [13] = 1% in sodium citrate buffer pH 5.1, 40°C, after 4 weeks
# [14] = 1% in sodium citrate buffer pH 5.1, immediately after dissolution
# [15] = 1% (w/v), intramuscular administration
compound,measurement,setting,value
C[C@H]1C[C@H]2[C@@H]3CCC4=CC(=O)C=C[C@]4(C)[C@@]3(F)[C@@H](O)C[C@]2(C)[C@@]1(O)C(=O)CO [Betamethasone],AUC0-t,[1],21371 ng·h/g
same,AUC0-∞,[1],21797 ng·h/g
Diclofenac(1-amino-2-propanol)-hyaluronic acid,muscle pressure pain threshold value vs control group,[2],increased in a significant sense
same,duration of analgesic effect,[2],14 days
same,duration of analgesic effect,[3],3 days
same,pain score vs control group,[3],improved in a significant sense
same,muscle pressure pain threshold value vs control group,[3],increased in a significant sense
Diclofenac(serine ethyl ester)-hyaluronic acid,Content of dissociated diclofenac (w/w %),[4]; [13],0.72 w/w %
same,Content of dissociated diclofenac (w/w %),[4]; [14],0.05 w/w %
Diclofenac(threonine ethyl ester)-hyaluronic acid,Content of dissociated diclofenac (w/w %),[4]; [13],0.19 w/w %
same,Content of dissociated diclofenac (w/w %),[4]; [14],0.00 w/w %
diclofenac (1-amino-2-propanol)-chondroitin sulfate [Example A4-1],muscle pressure pain threshold value vs control group,"[5]; 1% (w/v) i.m. 10 days before carrageenan, FIG. 12",increased in a significant sense
same,duration of analgesic effect,[5]; [15],10 days
"diclofenac (1-amino-3,3-dimethylbutan-2-ol)-chondroitin sulfate [Example A5-1]",diclofenac dissociation ratio,[6]; day 0,0.0%
same,diclofenac dissociation ratio,[6]; day 1,0.0%
same,diclofenac dissociation ratio,[6]; day 2,0.1%
same,diclofenac dissociation ratio,[6]; day 4,0.1%
same,diclofenac dissociation ratio,[6]; day 8,0.2%
"diclofenac (1-amino-3,3-dimethylbutan-2-ol)-hyaluronic acid [Example A6-1]",diclofenac dissociation ratio,[7]; day 0,0.0%
same,diclofenac dissociation ratio,[7]; day 1,0.1%
same,diclofenac dissociation ratio,[7]; day 2,0.2%
same,diclofenac dissociation ratio,[7]; day 4,0.4%
same,diclofenac dissociation ratio,[7]; day 8,0.8%
diclofenac (2-amino-1-cyclohexylethan-1-ol)-chondroitin sulfate [Example A5-3],diclofenac dissociation ratio,[6]; day 0,0.0%
same,diclofenac dissociation ratio,[6]; day 1,0.1%
same,diclofenac dissociation ratio,[6]; day 2,0.1%
same,diclofenac dissociation ratio,[6]; day 4,0.2%
same,diclofenac dissociation ratio,[6]; day 8,0.4%
diclofenac (2-amino-1-cyclohexylethan-1-ol)-hyaluronic acid [Example A6-3],diclofenac dissociation ratio,[7]; day 0,0.0%
same,diclofenac dissociation ratio,[7]; day 1,0.2%
same,diclofenac dissociation ratio,[7]; day 2,0.4%
same,diclofenac dissociation ratio,[7]; day 4,0.7%
same,diclofenac dissociation ratio,[7]; day 8,1.6%
diclofenac (4-amino-3-hydroxybutyric acid ethyl ester)-chondroitin sulfate [Example A5-4],diclofenac dissociation ratio,[6]; day 0,0.1%
same,diclofenac dissociation ratio,[6]; day 1,0.4%
same,diclofenac dissociation ratio,[6]; day 2,0.9%
same,diclofenac dissociation ratio,[6]; day 4,1.7%
same,diclofenac dissociation ratio,[6]; day 8,3.3%
diclofenac (4-amino-3-hydroxybutyric acid ethyl ester)-hyaluronic acid [Example A6-4],diclofenac dissociation ratio,[7]; day 0,0.2%
same,diclofenac dissociation ratio,[7]; day 1,1.7%
same,diclofenac dissociation ratio,[7]; day 2,3.2%
same,diclofenac dissociation ratio,[7]; day 4,6.2%
same,diclofenac dissociation ratio,[7]; day 8,13.0%
diclofenac (serine ethyl ester)-chondroitin sulfate [Example A4-2],diclofenac dissociation ratio,[8]; day 0,0.0%
same,diclofenac dissociation ratio,[8]; day 1,10.9%
same,diclofenac dissociation ratio,[8]; day 2,16.9%
same,diclofenac dissociation ratio,[8]; day 4,31.9%
same,diclofenac dissociation ratio,[8]; day 8,42.2%
diclofenac (threonine ethyl ester)-chondroitin sulfate [Example A4-3],diclofenac dissociation ratio,[8]; day 0,0.1%
same,diclofenac dissociation ratio,[8]; day 1,2.0%
same,diclofenac dissociation ratio,[8]; day 2,4.0%
same,diclofenac dissociation ratio,[8]; day 4,7.2%
same,diclofenac dissociation ratio,[8]; day 8,10.5%
diclofenac-(2-aminoethanol)-chondroitin sulfate [DF-CS],muscle pressure pain threshold value vs control group,"[9]; 1% (w/v) i.m. 7 days before carrageenan, measured 3 h after carrageenan, FIG. 11",increased in a significant sense
same,duration of analgesic effect,[9]; [15],7 days
same,pain score vs control group,[10]; FIG. 3,improved in a significant sense
same,muscle pressure pain threshold value vs control group,[10]; FIG. 4,increased in a significant sense
diclofenac-(2-aminoethanol)-hyaluronic acid,muscle pressure pain threshold value vs control group,"[11]; 1% (w/v) i.m. 10 days before carrageenan, measured 3 h after carrageenan, FIG. 9",increased in a significant sense
same,duration of analgesic effect,[11]; [15],10 days
same,diclofenac dissociation ratio,"[12]; 1% in sodium citrate buffer pH 5.1, 25°C, 0 y (year)",1.3%
same,diclofenac dissociation ratio,"[12]; 1% in sodium citrate buffer pH 5.1, 25°C, 0.5 y (year)",6.2%
same,diclofenac dissociation ratio,"[12]; 1% in sodium citrate buffer pH 5.1, 25°C, 1 y (year)",10.9%
same,diclofenac dissociation ratio,"[12]; 1% in sodium citrate buffer pH 5.1, 40°C, 0 m (month)",1.3%
same,diclofenac dissociation ratio,"[12]; 1% in sodium citrate buffer pH 5.1, 40°C, 4 m (month)",13.5%
same,diclofenac dissociation ratio,"[12]; 1% in sodium citrate buffer pH 5.1, 40°C, 6 m (month)",18.2%
same,diclofenac dissociation ratio,"[12]; 1% in sodium citrate buffer pH 5.1, 40°C, 9 m (month)",23.7%
same,diclofenac dissociation ratio,"[12]; 1% in sodium citrate buffer pH 5.1, 40°C, 12 m (month)",28.2%
same,diclofenac dissociation ratio,"[12]; 1% in sodium citrate buffer pH 5.1, 60°C, day 0",1.3%
same,diclofenac dissociation ratio,"[12]; 1% in sodium citrate buffer pH 5.1, 60°C, day 7",8.1%
same,diclofenac dissociation ratio,"[12]; 1% in sodium citrate buffer pH 5.1, 60°C, day 14",12.7%
same,diclofenac dissociation ratio,"[12]; 1% in sodium citrate buffer pH 5.1, 60°C, day 21",16.4%
same,muscle pressure pain threshold value vs control group,[2],not increased
same,duration of analgesic effect,[2],less than 14 days
same,duration of analgesic effect,[3],3 days
same,pain score vs control group,[3],improved in a significant sense
same,muscle pressure pain threshold value vs control group,[3],increased in a significant sense
